The target in the series is T1, scIHF-His (single-chain IHF, ihfA-linker-ihfB-6xHis) internal_change (Salmonella enterica serovar Typhimurium 14028s?) (UniProt P0A1S0).
T1 sequence: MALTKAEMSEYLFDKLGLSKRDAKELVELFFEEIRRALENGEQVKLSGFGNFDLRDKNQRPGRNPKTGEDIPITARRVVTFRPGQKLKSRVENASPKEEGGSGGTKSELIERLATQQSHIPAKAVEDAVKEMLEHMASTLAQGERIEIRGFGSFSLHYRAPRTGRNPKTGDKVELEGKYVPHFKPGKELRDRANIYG
Kind of series: EMSA. As to conditions: EMSA: 25 mM Tris pH 8, 75 mM NaCl, 10% glycerol, 0.5 mM DTT, 0.5 mM EDTA, 1 ug poly(dIdC), 0.1 mg/ml BSA, 0.87 pmol DNA in 20 ul, 37 C 10 min; gel 4-15% PAGE …. On the technique in general: In EMSA bound probe runs differently from free probe, usually more slowly.

On to “CCCTCGTGTACCATTGTTTACTTTTTGATCTAAAAATTACATCAAATGAACACAAAAAACGGTATAAAAAACGCTC (double strand) [intA promoter IHF BS(+)]”, for which the binding result is recorded as “binds”.

The values are drawn from paper PMC12455584.
